Data: doi:10.1101/180315 (bioRxiv, 2018)
Each block holds one binder with its values, some of them ahead of it.

B2: human WIPI4 (natural protein, UniProt Q9Y484 1-360, looked up)
chain: MTQQPLRGVTSLRFNQDQSCFCCAMETGVRIYNVEPLMEKGHLDHEQVGSMGLVEMLHRSNLLALVGGGSSPKFSEISVLIWDDAREGKDSKEKLVLEFTFTKPVLSVRMRHDKIVIVLKNRIYVYSFPDNPRKLFEFDTRDNPKGLCDLCPSLEKQLLVFPGHKCGSLQLVDLASTKPGTSSAPFTINAHQSDIACVSLNQPGTVVASASQKGTLIRLFDTQSKEKLVELRRGTDPATLYCINFSHDSSFLCASSDKGTVHIFALKDTRLNRRSALARVGKVGPMIGQYVDSQWSLASFTVPAESACICAFGRNTSKNVNSVIAICVDGTFHKYVFTPDGNCNREAFDVYLDICDDDDF

What was measured:
human WIPI4 = target: B2; test: SEC
S. cerevisiae ATG2 = S. cerevisiae ATG2 (S. cerevisiae, UniProt P53855 1-1592); test: negative-stain EM
human ATG2A = human ATG2A (human, UniProt Q2TAZ0 1-1938); test: negative-stain EM
human ATG2A, sequence (Q2TAZ0 whole entry): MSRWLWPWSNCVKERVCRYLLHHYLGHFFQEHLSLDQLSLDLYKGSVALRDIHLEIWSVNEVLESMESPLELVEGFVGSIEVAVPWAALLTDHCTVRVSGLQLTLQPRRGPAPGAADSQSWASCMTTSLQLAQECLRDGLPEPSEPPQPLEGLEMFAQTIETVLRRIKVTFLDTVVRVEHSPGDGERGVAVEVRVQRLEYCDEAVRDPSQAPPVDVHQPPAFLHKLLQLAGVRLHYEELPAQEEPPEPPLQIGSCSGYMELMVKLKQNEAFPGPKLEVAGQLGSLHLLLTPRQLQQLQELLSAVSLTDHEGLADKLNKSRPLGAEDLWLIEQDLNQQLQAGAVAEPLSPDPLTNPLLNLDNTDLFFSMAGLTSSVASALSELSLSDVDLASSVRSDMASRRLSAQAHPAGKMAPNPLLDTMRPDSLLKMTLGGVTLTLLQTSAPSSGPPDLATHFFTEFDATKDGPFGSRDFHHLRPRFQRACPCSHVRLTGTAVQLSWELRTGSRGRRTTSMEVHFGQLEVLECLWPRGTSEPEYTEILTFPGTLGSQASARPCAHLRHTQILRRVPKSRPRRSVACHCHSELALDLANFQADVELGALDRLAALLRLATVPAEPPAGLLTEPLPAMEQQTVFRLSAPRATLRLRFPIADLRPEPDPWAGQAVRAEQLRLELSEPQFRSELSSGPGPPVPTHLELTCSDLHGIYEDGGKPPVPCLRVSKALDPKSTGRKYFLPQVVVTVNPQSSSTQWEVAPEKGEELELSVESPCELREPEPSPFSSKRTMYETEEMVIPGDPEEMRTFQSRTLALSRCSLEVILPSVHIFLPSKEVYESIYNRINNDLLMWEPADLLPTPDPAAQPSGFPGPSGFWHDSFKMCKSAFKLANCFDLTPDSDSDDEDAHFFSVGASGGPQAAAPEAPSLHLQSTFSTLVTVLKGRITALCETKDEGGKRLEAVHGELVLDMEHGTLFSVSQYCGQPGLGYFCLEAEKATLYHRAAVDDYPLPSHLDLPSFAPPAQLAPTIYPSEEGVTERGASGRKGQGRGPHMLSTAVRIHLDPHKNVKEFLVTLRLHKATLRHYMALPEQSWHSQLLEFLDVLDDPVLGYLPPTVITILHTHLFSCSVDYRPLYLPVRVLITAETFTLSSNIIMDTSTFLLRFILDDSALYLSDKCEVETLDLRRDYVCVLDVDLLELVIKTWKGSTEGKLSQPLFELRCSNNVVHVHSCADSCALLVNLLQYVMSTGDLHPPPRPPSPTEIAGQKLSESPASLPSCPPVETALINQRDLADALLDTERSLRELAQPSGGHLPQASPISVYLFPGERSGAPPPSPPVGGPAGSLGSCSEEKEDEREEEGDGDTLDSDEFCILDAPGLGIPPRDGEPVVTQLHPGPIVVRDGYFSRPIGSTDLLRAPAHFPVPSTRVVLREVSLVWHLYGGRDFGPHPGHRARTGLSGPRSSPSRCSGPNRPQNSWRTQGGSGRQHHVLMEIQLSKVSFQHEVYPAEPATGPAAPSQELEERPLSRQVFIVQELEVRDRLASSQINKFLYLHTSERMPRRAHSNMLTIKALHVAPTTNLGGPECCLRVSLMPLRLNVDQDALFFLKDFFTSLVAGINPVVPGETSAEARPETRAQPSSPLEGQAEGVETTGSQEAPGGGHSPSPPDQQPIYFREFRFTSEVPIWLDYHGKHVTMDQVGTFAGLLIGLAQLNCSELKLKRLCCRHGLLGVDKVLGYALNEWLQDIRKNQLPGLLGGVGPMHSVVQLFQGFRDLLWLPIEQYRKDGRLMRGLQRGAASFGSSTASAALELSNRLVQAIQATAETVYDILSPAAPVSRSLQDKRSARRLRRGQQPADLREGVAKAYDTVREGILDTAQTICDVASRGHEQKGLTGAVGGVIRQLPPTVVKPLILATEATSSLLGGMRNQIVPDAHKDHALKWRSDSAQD

S. cerevisiae ATG2, sequence (P53855 whole entry): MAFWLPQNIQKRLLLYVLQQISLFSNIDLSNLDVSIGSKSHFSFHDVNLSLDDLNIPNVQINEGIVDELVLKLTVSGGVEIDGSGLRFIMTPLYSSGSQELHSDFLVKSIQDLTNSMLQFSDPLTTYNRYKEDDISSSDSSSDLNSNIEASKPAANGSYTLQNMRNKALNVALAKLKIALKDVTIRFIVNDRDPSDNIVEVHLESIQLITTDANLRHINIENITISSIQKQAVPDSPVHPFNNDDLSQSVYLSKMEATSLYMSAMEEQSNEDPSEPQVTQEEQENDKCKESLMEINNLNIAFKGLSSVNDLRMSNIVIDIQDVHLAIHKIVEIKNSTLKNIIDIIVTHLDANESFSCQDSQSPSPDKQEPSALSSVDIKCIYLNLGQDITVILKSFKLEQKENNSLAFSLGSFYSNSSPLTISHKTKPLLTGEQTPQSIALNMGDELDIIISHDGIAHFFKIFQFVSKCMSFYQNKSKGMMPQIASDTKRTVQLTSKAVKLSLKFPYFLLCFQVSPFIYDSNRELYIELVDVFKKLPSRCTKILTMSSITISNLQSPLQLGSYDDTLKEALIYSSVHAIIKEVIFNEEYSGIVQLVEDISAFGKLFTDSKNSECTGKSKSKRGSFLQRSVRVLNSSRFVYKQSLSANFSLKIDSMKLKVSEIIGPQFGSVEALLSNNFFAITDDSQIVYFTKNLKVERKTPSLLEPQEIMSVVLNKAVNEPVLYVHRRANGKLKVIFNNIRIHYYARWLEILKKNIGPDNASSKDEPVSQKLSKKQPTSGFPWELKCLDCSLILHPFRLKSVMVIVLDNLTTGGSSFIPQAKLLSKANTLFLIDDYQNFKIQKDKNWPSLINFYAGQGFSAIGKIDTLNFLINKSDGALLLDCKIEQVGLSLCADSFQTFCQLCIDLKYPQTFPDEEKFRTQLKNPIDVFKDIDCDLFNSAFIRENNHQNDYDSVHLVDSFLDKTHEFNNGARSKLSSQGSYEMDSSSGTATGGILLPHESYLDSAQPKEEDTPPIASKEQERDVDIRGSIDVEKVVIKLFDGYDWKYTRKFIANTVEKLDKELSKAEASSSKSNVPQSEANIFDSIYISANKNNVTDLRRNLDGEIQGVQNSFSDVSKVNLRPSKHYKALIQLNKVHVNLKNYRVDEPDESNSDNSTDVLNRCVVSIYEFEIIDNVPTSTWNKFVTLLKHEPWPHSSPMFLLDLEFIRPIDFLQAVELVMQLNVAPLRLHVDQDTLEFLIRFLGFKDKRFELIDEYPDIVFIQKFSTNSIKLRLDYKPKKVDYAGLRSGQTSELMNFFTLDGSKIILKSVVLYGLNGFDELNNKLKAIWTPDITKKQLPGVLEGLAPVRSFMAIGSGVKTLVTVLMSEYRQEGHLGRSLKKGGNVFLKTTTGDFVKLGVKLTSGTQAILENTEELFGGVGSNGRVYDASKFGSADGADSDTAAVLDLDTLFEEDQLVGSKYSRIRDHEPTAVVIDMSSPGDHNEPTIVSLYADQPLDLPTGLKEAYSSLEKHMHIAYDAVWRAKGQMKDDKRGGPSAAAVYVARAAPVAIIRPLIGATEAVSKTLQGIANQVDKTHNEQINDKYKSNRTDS

binding result (human WIPI4): binds
Binder: DSDEFCILDAPGLGIPPRDGEPVVTQLHPGPIVVRDGYFSRPIGSTD (domain or fragment, human, UniProt Q2TAZ0 1358-1404, looked up) [6xHis-GB1-ATG2A (1358-1404)]

binding result (S. cerevisiae ATG2): binds
B1: ATG18 (natural protein, S. cerevisiae, UniProt P43601 1-500, looked up)
chain: MSDSSPTINFINFNQTGTCISLGTSKGFKIFNCEPFGKFYSEDSGGYAIVEMLFSTSLLALVGIGDQPALSPRRLRIINTKKHSIICEVTFPTSILSVKMNKSRLVVLLQEQIYIYDINTMRLLHTIETNPNPRGLMAMSPSVANSYLVYPSPPKVINSEIKAHATTNNITLSVGGNTETSFKRDQQDAGHSDISDLDQYSSFTKRDDADPTSSNGGNSSIIKNGDVIVFNLETLQPTMVIEAHKGEIAAMAISFDGTLMATASDKGTIIRVFDIETGDKIYQFRRGTYATRIYSISFSEDSQYLAVTGSSKTVHIFKLGHSMSNNKLDSDDSNMEEAAADDSSLDTTSIDALSDEENPTRLAREPYVDASRKTMGRMIRYSSQKLSRRAARTLGQIFPIKVTSLLESSRHFASLKLPVETNSHVMTISSIGSPIDIDTSEYPELFETGNSASTESYHEPVMKMVPIRVVSSDGYLYNFVMDPERGGDCLILSQYSILMD

Binder: B2
stoichiometry N (human ATG2A): 1
